Here are results for 1 molecule from CN113234158A (FUZHOU MAIXIN BIOTECHNOLOGY DEV CO LTD, dated 2021).

This assay deals with T1, TIM3蛋白 (T细胞免疫球蛋白黏液素3) (human, UniProt Q8TDQ0 22-301).
T1 construct: whole, on cells; Endogenous TIM3 in paraffin tissue sections (immunohistochemistry); Species 'human' comes from the abstract; also called T cell immunoglobulin and mucin-3
T1 sequence (looked up): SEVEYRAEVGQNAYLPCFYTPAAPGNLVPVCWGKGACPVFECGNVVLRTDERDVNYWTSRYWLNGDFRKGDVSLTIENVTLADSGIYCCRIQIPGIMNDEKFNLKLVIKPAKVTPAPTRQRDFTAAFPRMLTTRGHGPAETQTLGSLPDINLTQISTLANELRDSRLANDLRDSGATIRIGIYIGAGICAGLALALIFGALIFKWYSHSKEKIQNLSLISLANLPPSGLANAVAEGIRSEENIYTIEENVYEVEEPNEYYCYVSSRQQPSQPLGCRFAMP
The assay is described as follows: immunohistochemistry on tonsil and appendix tissue chips.

B1: 抗TIM3蛋白单克隆抗体 (小鼠杂交瘤细胞株7H2分泌, CGMCC NO 20763) (antibody, V domains shown)
VH: QVQLQESGGDLVKTGGSLKLSCVASGFTFRRYTMSWVRQTPAKRLEWVATIGSGGGDTYYPDTVKGRFTISRDNARSTLFLQMNSLRSEDTARYYCARSSYYYDVDLYYYSMDYWGQGTSVTVSS
VL: DILMTQTPLSLSASLGDRVTISCRASQDIRNCLNWYQQKPDGTVKLLIYYTSTLQSGVPSRFSGSGSGTDYSLTISNLEAEDIATYTCQQYSKIPRTFGGGTTLEIK
notes: also called TIM3(7H2); 本抗体
Take B1: the binding result was “binds”.
